According to patent US5712366, “Fabrication of nanoscale materials using self-assembling proteins” (The United States of America as represented by the …, dated 1998):

How the values were obtained:
[1] = biological target: T1, polypeptide C2 (amino acid sequence of FIG. 4C); assay: surface plasmon resonance, one species immobilized onto a gold film
T1 chain: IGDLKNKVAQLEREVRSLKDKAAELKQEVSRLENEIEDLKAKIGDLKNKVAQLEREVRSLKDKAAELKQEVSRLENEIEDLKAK
Method: Next, the interaction of polypeptide A2 with polypeptides B2 and C2, when both of the components were free in solution and when one species was immobilized onto a gold film, was examined. The immobilization tests were performed to measure the rates of association and dissociation between the complexes. Surface plasmon resonance was used to detect minute changes in refractive index that accompanied a specific binding event in the immediate vicinity of the metal surface. […] After an initial increase in refractive index due to solvent exchange, it is seen that the rate of association for the A2-B2 complex was more rapid and that the equilibrium response was achieved sooner. […] For the A2-C2 interaction, kass=3.46×10^3, kdiss=[…], and K_a=1.45×10^6.

[2] = biological target: T2, polypeptide B2 (amino acid sequence of FIG. 4B); assay: turbidity at 400 nm on mixing at equal concentrations; gel analysis of the precipitate
T2 chain: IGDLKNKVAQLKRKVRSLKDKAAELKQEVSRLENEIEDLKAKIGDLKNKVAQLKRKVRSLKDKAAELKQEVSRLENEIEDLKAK
Excerpt: First, the interaction between polypeptides A2 and B2 was investigated using turbidity measurements at 400 nm. […] When the polypeptides were mixed at equal concentrations, a rapid increase in turbidity was seen. This was attributed to specific heterodimer formation, which subsequently associated into higher order structures that precipitated in solution. […] No similar increase in the turbidity of the homodimer solutions was observed prior to mixing.

binding result [1]: binds | binding result [2]: binds
B1: polypeptide A2 (amino acid sequence of FIG. 4A) (designed binder)
chain: IGDLENEVAQLEREVRSLEDEAAELEQKVSRLKNEIEDLKAEIGDLENEVAQLEREVRSLEDEAAELEQKVSRLKNEIEDLKAE
